Results published in PMC6343799.

Legend:
[1] = target: SHR-1210-IgG1 (human); assay: SPR
[2] = target: cyno PD1 expressed on CHO-K1 stable cell line (Macaca fascicularis) (UniProt B0LAJ3); assay: flow cytometry on cells
[3] = target: human PD1 expressed on CHO-K1 stable cell line (Homo sapiens) (UniProt Q15116); assay: flow cytometry on cells

| Substance | Kd [1] [nM] | EC50 [2] [nM] | EC50 [3] [nM] |
| --- | --- | --- | --- |
| His-tagged monomeric human PD1 ectodomain (from UniProt Q15116 25-170) (domain or fragment) | 4 | – | – |
| His-tagged monomeric cynomolgus monkey PD1 ectodomain (domain or fragment) | 32 | – | – |
| SHR-1210-IgG1 (antibody) | – | 6.53 | 2.32 |
